Assay results taken from the supplement of paper PMC9170038.

What was measured:
MS2 coat protein [1] = assay: apparent KD of MS2 coat protein, switch ON state; designed switch direction (-1 OFF switch, 1 ON switch): -1; higher = weaker reporter binding; settings: FMN input: 0 or 200 uM; Eterna round: R93 (includes R88 designs)
Procedure, shortened: (§1)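 Binding of SNAP-549-labelled MS2 coat protein was measured on designed RNA switches transcribed on-chip from Illumina sequencing clusters. The protein rose in twofold steps from 0.7 or 1.5 nM to 3 µM, with 0.8–1.5 h per step early on and 10–20 min per step later, in 100 mM Tris-HCl pH 7.5, 80 mM KCl, 4 mM MgCl2, without or with constant ligand. Each design's apparent KD is the median of fits to its normalised cluster binding curves.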

MS2 coat protein [2] = assay: apparent KD of MS2 coat protein, switch OFF state (with FMN for OFF switches, without FMN for ON switches); designed switch direction (-1 OFF switch, 1 ON switch): -1; higher = weaker reporter binding; settings: FMN input: 0 or 200 uM; Eterna round: R93 (includes R88 designs)
Procedure, shortened: as §1

Row | Sequence | apparent KD of MS2 coat protein (MS2 coat protein [1]) [nM] | apparent KD of MS2 coat protein (MS2 coat protein [2]) [nM]
1 | AAGACUAGAGGAUAUACAUGAGGAUCACCCAUGUAACUGUCAGAAAACUGACGGAGAAGUAGAAGGCUAGUCAA [Mat - Exclusion 3 - JL mod - D86] | 16.9 | 21.2
2 | UGUUGGCGAGGAUAUACAUGAGGAUCACCCAUGUGAGAGAAAAAAGUGAGAAAGAAAAGUAGAAGGCGCUGACC [salish99-ex3-10] | 68.5 | 203
3 | AAGAACUAAGGAUAUACAAGGAAGAAAGAAAAGAAAAGAAAACAUGAGGAUCACCCAUGUAGAAGGUAGUAGAA [EteRNA is fun!] | 28.8 | 24.7
4 | CGCUAGUCAGGAUAUACGAACAUGUCAAAAGACGUGAAGGGACAUGAGGAUCACCCAUGUAGAAGGGACUAGCG [Mat - Exclusion 2 - JL mod - D4] | 30.2 | 131
5 | AAAAAUGCAGGAUAUACAUGAGGAUCACCCAUGUUAGACCUGAAAAAAGGGAAAGAAAGUAGAAGGGCAUAAAA [Ex 3 May 30] | 12.7 | 11.2
6 | GGAAAGCGAGGAUAUACAUGAGGAUCACCCAUGUAAACAAACAAACAAACAAACAAAUGUAGAAGGCGCAAAAC [Exclusion 3 Strange] | 49 | 50.6
7 | GGUUGAAUAGGAUAUACAUGAGGAUCACCCAUGUGAGAGAAAAAAGUGAGAAAGAAAAGUAGAAGGAUUUGACG [salish99-ex3-61] | 34.7 | 65.1
8 | AAAAAACAUGAGGAUCACCCAUGUGAGGAUAUCCAAAAGAAAAGAAAAGAAAGAAGAAGGAGAAGGCACAAGAA [Khufu] | 55.2 | 47.9
9 | ACUAAUGAAGGAUAUACAAACAACAAACACUCAACACACACACAUGAGGAUCACCCAUGUAGAAGGUCAAACAU [JR_Exc002_Sub1204] | 19.2 | 18.2
10 | AUAGUACAUGAGGAUCACCCAUGUCAGGAUAUCGGAUAUGACAUGAAAAAAAUGUUAACGAGAAGGGACUAUAA [EX1 Malc#18] | 44.3 | 49.8
11 | AAAAAGGGAGGAUAUGCAUACACACAAAAAAAAAAACCGGGACAUGAGGAUCACCCAUGUAGAAGGCCCAAAAA [Dora Explored 6 - Jieux - Exclusion 2] | 33.5 | 25
12 | AAAGGAUCAGGAUAUGUGUGGAAAAAGUGUAUUCAAAAAAAACAUGAGGAUCACCCAUGUAGAAGGGAUCCAAA [Mod of 2Normal (20/19) by Nando, Round 1] | 298 | 397
13 | CACGUACAUGAGGAUCACCCAUGUUAGGAUAUGCCGGGUAAGAGAAAACAAAAAAUCAGCAGAAGGGACGAAAC [Bilbo Confounded 17 - Jieux - Exclusion 1] | 34.1 | 31.8
14 | AAGAACGAAGGAUAUACAUGAAAGAAAGAAAAGAAAAGAAAACAUGAGGAUCACCCAUGUAGAAGGUCGUAGAA [EteRNA is fun!] | 26.2 | 28.8
15 | AACUAGCUAGGAUAUACAUGAGGAUCACCCAUGUAAAAAAAAAAAAAAAAAUUUUUAUGUAGAAGGAGCUAGUA [Design 1 - Brourd - Exclusion 3] | 27.9 | 35.4
16 | AGUUGGCGAGGAUAUACAUGAGGAUCACCCAUGUGAGAGAAAAAAAAGAGAAAAAAAAGUAGAAGGCGCUGACA [Mat - Exclusion 3 - Lego mod - D42] | 42.6 | 130
17 | AUCUACCUAGGAUAUACAUGAGGAUCACCCAUGUACAGAUACAACAAGGGAAACACACGUAGAAGGAGGAAGAU [JR_Exc003_Sub1206] | 25.8 | 60.8
18 | AAGAACUGAGGAUAUGCAAAAGGGAAAGCUGAUCCUCAUCUACAUGAGGAUCACCCAUGUAGAAGGCGGGAAAU [Aveerve] | 63.4 | 47.7
